Laboratory results taken from patent publication US11433139B2, “Peptide vaccines against interleukin-31” (Zoetis Services LLC, priority 2018, dated 2022).
Where no end group is shown, it is not given here.

B1: feline IL-31 CRM: CRM-197 conjugated feline IL-31 (SEQ ID NO: 159; Feline_IL-31_E_coli), control group T02 (conjugate)
chain: MRGSHHHHHHGSSHMAPAHRLQPSDIRKIILELRPMSKGLLQDYLKKEIGLPESNHSSLPCLSSDSQLPHINGSAILPYFRAIRPLSDKNTIDKIIEQLDKLKFQREPEAKVSMPADNFERKNFILAVLQQFSACLEHVLQSLNSGPQ
modifications: conjugated to CRM-197 carrier; Amino acid sequence representing feline IL-31 protein with N-terminal His tag

Columns and labels:
[1] = system: full length feline IL-31; assay: Cat serology study, serum titers by indirect ELISA to feline IL-31; format: in vivo; settings: laboratory cats, 10 μg/dose s.c. days 0, 28, 56, Bay R1005 and CpG adjuvant mixture
Experimental: 2.9. Serum titers to IL-31 following immunization of laboratory cats with IL-31 feline and equine mimotopes and full length feline IL-31 protein A serology study was performed using laboratory cats like the study design described herein in section 2.3 however in this study feline and equine mimotopes were compared. Laboratory cats were subcutaneously administered the conjugated IL-31 mimotopes adjuvanted with a mixture including the glycolipid adjuvant Bay R1005 (N-(2-Deoxy-2-L-leucylamino-β-D-glucopyranosyl)-N-octadecyldodecanoylamidehydroacetate) as well as CpG oligonucleotides. A control group was included containing CRM-197 conjugated feline IL-31 (SEQ ID NO: 157; Feline_IL31_wildtype), the corresponding nucleotide sequence for which is (SEQ ID NO: 158; Feline_IL-31_wildtype) in an adjuvant mixture including the glycolipid adjuvant Bay R1005 (N-(2-Deoxy-2-L-leucylamino-β-D-glucopyranosyl)-N-octadecyldodecanoylamidehydroacetate) as well as CpG oligonucleotides. (T01). 10 μg/dose of each adjuvanted mimotope or control was administered subcutaneously on days 0, 28, and 56 (0.5 ml of a 20 μg/ml solution). Blood for serum was taken on day −14, 0 (pre-dose), 28 (pre-dose), 42, 56 (pre-dose), 70, and 84. In addition, on days 35 and 63, approximately 40 mls of blood was collected from each animal into lithium heparin tubes and processed for PBMC isolation using a standard method. […]

[2] = system: mAb ZTS-361; assay: Peptide block of mAb ZTS-361 inhibition of IL-31 mediated STAT3 phosphorylation in feline FCWF-4 macrophages; format: cell-based
[3] = system: full length feline IL-31 protein; assay: Dog immunogenicity study, serum titers by indirect ELISA to feline IL-31; format: in vivo, canine; settings: beagle dogs, 10 μg/dose s.c. days 0, 28, 56, ZA-01 adjuvant; maximum dilution 1:50,000
Source text: (§1) An immunogenicity study was undertaken to assess the ability of CRM-197-conjugated IL-31 15H05 mimotopes to generate an epitope-specific immune response driven towards the relevant region on the IL-31 protein where antibody 15H05 binds and neutralizes the cytokines ability to activate the IL-31Ra:OSMR co-receptor. The study design is depicted in FIG. 14. Purebred male beagle dogs were subcutaneously administered the conjugated IL-31_15H05 mimotopes adjuvanted with ZA-01. […] Control groups were included containing ZA-01 adjuvant CRM-197 alone (T01) and CRM-197 conjugated feline IL-31 (SEQ ID NO: 159; Feline_IL-31_E_coli), the corresponding nucleotide sequence for which is (SEQ ID NO: 160; Feline_IL-31_E_coli) in ZA-01 (T02). 10 μg/dose of each adjuvanted mimotope or control was administered subcutaneously on days 0, 28, and 56 (0.5 ml of a 20 μg/ml solution). Blood for serum was taken on day 0 (pre-dose), 7, 12, 28 (pre-dose) 35, 42, 49, 56 (pre-dose), 63, 70, 77, and 84. In addition, on days 35 and 84, approximately 40 mls of blood was collected from each animal into lithium heparin tubes and processed for PBMC isolation using a standard method. […]
(§2) Serum titers from each study day indicated in section 2.3 above were assessed for each animal. Titers were determined using an indirect ELISA where a full length IL-31 protein was used as the capture material for each respective assay. […]

[4] = system: full length human IL-31; assay: Dog immunogenicity study, serum titers by indirect ELISA to human IL-31; format: in vivo, canine; settings: beagle dogs, 10 μg/dose s.c. days 0, 28, 56, ZA-01 adjuvant
Source text: as §1, §2

[5] = system: full length equine IL-31; assay: Dog immunogenicity study, serum titers by indirect ELISA to equine IL-31; format: in vivo; settings: beagle dogs, 10 μg/dose s.c. days 0, 28, 56, ZA-01 adjuvant
Source text: as §1, §2

[6] = system: full length canine IL-31; assay: Dog immunogenicity study, serum titers by indirect ELISA to canine IL-31; format: in vivo; settings: beagle dogs, 10 μg/dose s.c. days 0, 28, 56, ZA-01 adjuvant; maximum dilution 1:50,000
Source text: as §1, §2

Chain of mAb ZTS-361 (as listed by the source): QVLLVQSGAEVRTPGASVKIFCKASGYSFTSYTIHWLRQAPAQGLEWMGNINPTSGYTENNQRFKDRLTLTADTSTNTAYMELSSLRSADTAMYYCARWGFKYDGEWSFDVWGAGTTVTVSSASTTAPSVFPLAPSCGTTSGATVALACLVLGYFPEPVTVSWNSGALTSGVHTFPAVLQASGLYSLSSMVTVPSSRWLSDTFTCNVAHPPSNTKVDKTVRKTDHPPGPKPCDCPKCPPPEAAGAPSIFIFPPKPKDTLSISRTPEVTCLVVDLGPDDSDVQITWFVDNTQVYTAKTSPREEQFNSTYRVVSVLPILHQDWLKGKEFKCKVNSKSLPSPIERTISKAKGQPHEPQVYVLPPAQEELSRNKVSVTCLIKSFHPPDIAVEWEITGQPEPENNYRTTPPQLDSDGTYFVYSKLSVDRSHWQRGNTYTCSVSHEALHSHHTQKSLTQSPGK
Chain of mAb ZTS-361 (as listed by the source): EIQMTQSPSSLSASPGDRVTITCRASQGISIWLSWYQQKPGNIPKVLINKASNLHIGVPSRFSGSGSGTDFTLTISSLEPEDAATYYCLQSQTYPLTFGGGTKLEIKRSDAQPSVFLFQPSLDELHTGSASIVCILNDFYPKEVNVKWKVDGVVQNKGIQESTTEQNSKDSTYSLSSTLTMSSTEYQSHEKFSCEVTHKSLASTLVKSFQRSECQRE
Chain of full length equine IL-31 (as listed by the source): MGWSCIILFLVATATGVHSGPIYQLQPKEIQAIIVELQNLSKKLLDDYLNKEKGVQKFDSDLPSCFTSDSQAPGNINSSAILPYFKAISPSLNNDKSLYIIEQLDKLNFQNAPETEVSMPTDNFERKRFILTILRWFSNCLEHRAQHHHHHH
Chain of full length canine IL-31 (as listed by the source): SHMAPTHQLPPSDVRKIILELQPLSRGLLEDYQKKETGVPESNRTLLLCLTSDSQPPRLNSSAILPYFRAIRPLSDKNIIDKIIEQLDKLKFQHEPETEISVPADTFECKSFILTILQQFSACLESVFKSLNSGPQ

Row | Molecule | feline antibody titers to full length feline IL-31 [1] | IC50, conjugated peptide ([2]; CRM197 conjugated, co-incubated 1 hour with 0.2 μM mAb ZTS-361, FCWF-4 cells) [µg/mL] | decline of potency following conjugation ([2]; conjugated vs unconjugated) | canine antibody titers to full length feline IL-31 [3] | canine antibody titers (CRAR) to full length human IL-31 [4] | canine antibody titers (CRAR) to full length equine IL-31 [5] | canine antibody titers to full length canine IL-31 [6]
1 | constrained feline IL-31 15H05 mimotope, N-AKVSMPADNFERKNFILT-C plus N and C terminal Cysteines, mT2a (CAKVSMPADNFERKNFILTC; also: constrained via terminal cysteines, mode not given here) [ZTS-563] | modest response | 3.384 | approximately 3 fold | – | – | – | –
2 | B1 | – | – | – | moderate and sustained antibody response | minor | negligible | transient CRAR
